Where a chain is given by its changes, count along the chain named. “Also recorded” adds a separate entry of the source. Square brackets hold non-standard residues; d marks the D form. Ends that are not written are not given here. pY = N[C@@H](Cc1ccc(OP(=O)(O)O)cc1)C(=O)O
Experiments:
[1] = target: SHP1 (Homo sapiens, UniProt P29350); details: reference (40); cited from earlier work
[2] = target: T1, PTP-1B DA (trapping mutant) (Homo sapiens, UniProt P18031, D181A); experiment: SPOT analysis, membrane peptides probed with radiolabeled PTP; format: binding; details: for SPOT binding to PTP1B trapping mutant, double phosphorylated peptide: two phosphorylated Tyr, compared with single ones; for SPOT binding to PTP1B trapping mutant: 15-mer peptides with phospho-Tyr on membrane
T1 construct: specific primers corresponding to the beginning and the end of the catalytic domain of every PTPs were used; made in house; host or cells: Escherichia coli BL21 (codon +)
T1 sequence (P18031 3-277 D181A limits assumed): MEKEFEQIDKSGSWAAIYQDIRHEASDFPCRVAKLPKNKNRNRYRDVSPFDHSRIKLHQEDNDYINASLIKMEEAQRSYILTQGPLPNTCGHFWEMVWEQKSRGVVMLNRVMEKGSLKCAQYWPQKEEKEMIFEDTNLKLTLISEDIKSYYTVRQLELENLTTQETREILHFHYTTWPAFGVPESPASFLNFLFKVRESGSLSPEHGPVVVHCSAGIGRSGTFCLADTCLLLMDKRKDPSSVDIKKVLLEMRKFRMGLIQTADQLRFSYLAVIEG
Protocol: (§1) Labelling of GST-PTP for the SPOT analysis was performed as follows: 2 to 5 μg of GST fusion proteins were bound to glutathion-sepharose beads (Amersham Pharmacia Biotech) at 4° C. After washes GST fusion proteins were radiolabeled by 50 units of protein kinase from bovine heart (Sigma) in presence of 35 μCi of (γ-32P) ATP in PKA buffer (20 mM Tris pH 7.5, 100 mM NaCl, 12 mM MgCl2, 1 mM DTT) for 30 minutes on ices. After washes, fusion proteins were eluted from beads by 10 mM free glutathione in 50 mM Tris, pH 8.0 (28).
(§2) Peptides were manually synthesized on derivatized cellulose membrane provided by Sigma-Genosys, which also provided the 20 Fmoc-amino acids active esters. Fmoc-phosphotyrosines from Novabiochem (#04-12-1156) were incorporated in presence of the coupling reagent, N,N′-Diisopropylcarbodiimide (DIC; Sigma) and hydroxybenzotriale (HOBt; Fluka; Espanel et al., submitted).
(§3) Membranes were blocked (at least 2 hours) and probed at 4° C. in Western wash buffer (10 mM Tris, pH 7.4, 0.1% Triton X-100 and 150 mM NaCl)+SPOT blocking buffer (Sigma-Genosys). After 2 hours, membranes were washed several times in Western wash buffer and were autoradiographed.

[3] = tested on: PTP-Sap1 R88N; experiment: as above; format: binding; details: 15-mer peptides with phosphotyrosine on membrane
Protocol: as §1, §2, §3

[4] = target: T2, PTP1B trapping mutant (Homo sapiens, UniProt P18031, D181A); experiment: ELISA of phosphorylated phage clones on coated GST-PTP; format: binding; details: PTP1B selected phage clones, src-phosphorylated
T2 construct: These two restriction sites were used to clone the catalytic domain in frame into a pGEX4TK vector (Pharmacia); made in house; host or cells: Escherichia coli BL21 (codon +)
T2 sequence (P18031 3-277 D181A limits assumed): T1 sequence (P18031 3-277 D181A limits assumed)
Protocol: (§4) Single clones were amplified as described previously. The coating was done with GST-PTP or GST alone in PBS (2 μg per well in a 96 well plate format). Phosphorylation of the phages was performed following the described protocol (with and without 3 U of src kinase, in order to check the phospho-Tyr specificity of the recognition, thus be sure that positives were catalytic domain specific as shown in (30)) and during this process, each well was blocked with a solution of 5% fat free powder milk in PBS. Wells were washed 5 times in PBS-Tween® 0.5% and phages were incubated with the PTP-GST or GST in 100 μl Trapping Buffer (20 mM Tris pH 7.5, 150 mM NaCl and 1 mM EDTA) for 2 hours at 4° C. Wells were extensively washed and blocked for 1 hour in PBS-5% Milk.

[5] = target: T2, PTP1B trapping mutant; experiment: Panning of the tyrosine-biased phage library and sequencing of trapped clones; format: binding; details: after three pannings, sequenced trapped phages
Protocol: (§5) Phages (10^9-10^10) were incubated for three hours at 30° C. in the kinase buffer (25 mM Tris pH7.5, 5 mM MgCl2, 2.5 mM MnCl2, 2.5 mM DTT and 1 mM ATP) in a total volume of 20 μl. […] Therefore, the total library was phosphorylated and passed through an antiPTyr column (Upstate). The bound phages were eluted with phenylphosphate, and the clones were passed twice again in the column. The amplified Tyrosine-carrying phages were then stocked at 4° C. in TE and used for the trapping experiment (see below). […] Furthermore, no sequences were found twice. […] This was checked following our phosphorylation protocol and using (γ-32P) ATP as a tracer.
(§6) Phages (10^8 to 10^9) were incubated in kinase buffer (20 mM Tris pH7.5, 5 mM MgCl2, 2.5 mM MnCl2, 1 mM ATP, 2.5 mM DTT and with or without 3 Units of src kinase) for 3 hours at 30° C. The p60src, purified from Baculovirus, was purchased from Upstate Biotech. Gluthation-Sepharose beads were pre-coated with 3 μg of either GST or PTP-GST for 4 hours at 4° C. in a solution of Trapping Buffer (20 mM Tris pH 7.5, 150 mM NaCl and 1 mM EDTA) with 1% BSA final. The phages were first pre-cleared using GST-beads for 30 minutes at 4° C., spun down and the supernatant was incubated with the coated PTP-GST for 1.5 hours at 4° C. with a constant shaking. Finally beads were spun down and washed several times (5 times for the first panning, then 10 times) with a solution of PBS with 0.25% Tween® final. Phages were eluted from PTP-GST by an acidic treatment (glycine buffer, pH 2.7) for 10 minutes at RT with a constant shaking, beads were spun down and phages were recovered in the supernatant. One tenth volume of a 1 M Tris pH 9.0 solution was added in order to restore the pH. Phages were finally titred in both fractions (bound and unbound) and the rest of the bound fraction was used to infect XL1 MRF′ Bacteria (Stratagene) following described procedures (24). The day after, cells were scraped and phages were amplified using helper phage M13K07 (Pharmacia) using the manufacturer's procedures.
(§7) When an increase in the number of trapped clones was observed, phages where purified as single clones and colony-PCR was performed using phage primers, forward: 5′ATG AAA AAG TCT TTA GTC CTC3′ and reverse: 5′CAG CTT GAT ACC GAT AGT TGC3′. The PCR products were then purified and sequenced using the same primers. Sequences were read in both direction using SeqmanII Software.

[6] = target: T3, WT PTP1B (Homo sapiens, UniProt P18031); experiment: Dephosphorylation assay on GST-PEP constructs; format: biochemical; details: not shown
T3 construct: These two restriction sites were used to clone the catalytic domain in frame into a pGEX4TK vector (Pharmacia); GST (N); made in house; host or cells: Escherichia coli BL21 (codon +)
T3 sequence (P18031 3-277 limits assumed): T1 sequence (P18031 3-277 D181A limits assumed) with A179D
Protocol: PEP-GST constructs were prepared as follows: the primers used correspond to the pVIII capsid sequence of M13+two restriction sites (XhoI and NotI): 5′TATCTCGAGTCTTTCGCTGCTGAGGGT GA3′ for the sense and 5′ATAGCGGCCGCTTGCAGGGAGTCAAAGGCC G3′ for the antisense. The DNA of the phage was directly amplified by adding 10^9 phages to the PCR mix. After PCR using Herculase Polymerase (Stratagene), the DNA fragments (100 bp) were purified using Microcon® PCR (Millipore) and gel extraction was performed with Utrafree®-DA (Millipore). The cloning and the protein purification were finally accomplished following the same protocol as for the PTPs, with the only difference that TKB1 (Stratagene) bacteria were transformed and a single colony was grown and induced for protein production and phosphorylation exactly as described by the manufacturer. Again, all constructs were checked by DNA sequencing before protein production.
100 ng of PEP-GST construct was incubated with 10 ng of PTP wild type in PTP buffer (50 mM Hepes pH 7.4, 0.05% Nonidet NP-40 and 1 mM DTT). The reaction was stopped by mixing equal volume aliquots with a solution of 50 mM vanadate at different laps of time. […]

[7] = target: T4, PTP-Sap1 (Homo sapiens, UniProt Q9HD43, D986A); experiment: Panning of the tyrosine-biased phage library and sequencing of trapped clones; format: binding; details: after three rounds, sequenced trapped phages
T4 construct: These two restriction sites were used to clone the catalytic domain in frame into a pGEX4TK vector (Pharmacia); made in house; host or cells: Escherichia coli BL21 (codon +)
T4 sequence (Q9HD43 820-1079 D986A limits assumed): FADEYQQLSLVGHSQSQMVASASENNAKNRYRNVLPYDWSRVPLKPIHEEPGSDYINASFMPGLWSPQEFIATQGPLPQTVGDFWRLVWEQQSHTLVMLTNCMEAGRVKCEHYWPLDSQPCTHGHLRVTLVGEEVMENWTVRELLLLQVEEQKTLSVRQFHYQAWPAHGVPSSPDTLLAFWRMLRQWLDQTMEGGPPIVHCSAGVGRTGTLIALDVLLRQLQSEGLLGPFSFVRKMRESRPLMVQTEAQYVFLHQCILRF
Protocol: as §5, §6, §7

[8] = target: T5, PTP-Sap1DA (Homo sapiens, UniProt Q9HD43, D986A); experiment: SPOT analysis, membrane peptides probed with radiolabeled PTP; format: binding
T5 construct: specific primers corresponding to the beginning and the end of the catalytic domain of every PTPs were used; made in house; host or cells: Escherichia coli BL21 (codon +)
T5 sequence (Q9HD43 820-1079 D986A limits assumed): T4 sequence (Q9HD43 820-1079 D986A limits assumed)
Protocol: as §1, §2, §3

[9] = target: T4, PTP-Sap1; experiment: ELISA of phosphorylated phage clones on coated GST-PTP; format: binding; details: PTP-Sap1 selected phage clones, src-phosphorylated
Protocol: as §4

Sequence of SHP1 (P29350 whole entry): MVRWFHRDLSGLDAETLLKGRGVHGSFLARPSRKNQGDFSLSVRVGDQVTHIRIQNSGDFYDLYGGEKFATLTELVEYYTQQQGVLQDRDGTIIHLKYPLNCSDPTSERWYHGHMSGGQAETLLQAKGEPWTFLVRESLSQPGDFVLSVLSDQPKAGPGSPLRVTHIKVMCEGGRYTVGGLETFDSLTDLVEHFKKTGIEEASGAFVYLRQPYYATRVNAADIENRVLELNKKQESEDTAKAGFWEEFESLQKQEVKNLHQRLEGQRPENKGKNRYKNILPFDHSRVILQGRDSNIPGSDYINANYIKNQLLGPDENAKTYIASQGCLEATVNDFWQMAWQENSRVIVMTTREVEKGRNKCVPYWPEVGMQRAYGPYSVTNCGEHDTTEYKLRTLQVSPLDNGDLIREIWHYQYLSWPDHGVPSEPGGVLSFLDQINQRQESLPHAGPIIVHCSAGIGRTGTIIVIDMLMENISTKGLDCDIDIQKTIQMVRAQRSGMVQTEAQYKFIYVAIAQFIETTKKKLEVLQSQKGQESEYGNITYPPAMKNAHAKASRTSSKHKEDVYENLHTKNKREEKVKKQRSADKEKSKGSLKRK

O.O.O.O.O.O.O.O.O.O=C([O-])[C@@H]1[O][Sb]2([O-])([O][Sb]34([OH])[O][C@H]([C@H](O)CO)[C@H]([O]3)[C@H](C(=O)[O-])[O]4)[O][C@H]([C@H](O)CO)[C@@H]1[O]2.[Na+].[Na+].[Na+] [sodium stibogluconate]
Inhibition of SHP1 [1]: strongly inhibits

EFATpYEEYALMDPAK (EFAT[pY]EEYALMDPAK) [Clone 1b-12]
SPOT binding to PTP1B trapping mutant, double phosphorylated peptide [2]: did not seem to react as well as single ones

EFEPIpYNAYQVDPAK (EFEPI[pY]NAYQVDPAK) [Clone 1b-6]
SPOT binding to PTP1B trapping mutant [2]: All except two sequences (1b-6 and 1b11) were recognized

EFGATpYGVYTSDPAK (EFGAT[pY]GVYTSDPAK) [Sm-2]
SPOT binding to PTP-Sap1 R88N [3]: strongest signals

EFIpYGSFHQTADPAK (EFI[pY]GSFHQTADPAK) [Sm-15]
SPOT binding to PTP-Sap1 R88N [3]: strongest signals

EFLpYANVERSSDPAK (EFL[pY]ANVERSSDPAK) [Sm-8]
SPOT binding to PTP-Sap1 R88N [3]: did not bind
SPOT binding to PTP-Sap1 R88N ([3]; listed as sm-8): not recognized

EFQSPVpYGNFADPAK (EFQSPV[pY]GNFADPAK) [Clone 1b-11]
SPOT binding to PTP1B trapping mutant [2]: All except two sequences (1b-6 and 1b11) were recognized

EFQpYZGEYTRGDPAK (EFQ[pY]XGEYTRGDPAK; not fully specified (residue 5)) [Clone 1b-4]
SPOT binding to PTP1B trapping mutant [2]: confirmed in SPOT; also recorded: best substrate in this assay
SPOT binding to PTP1B trapping mutant, double phosphorylated peptide [2]: binding became more efficient
ELISA [4]: not found in ELISA

EFpYATYGSAATDPAK (EF[pY]ATYGSAATDPAK) [Clone 1b-1]
Copy in the pool [5]: 4×
SPOT binding to PTP1B trapping mutant, double phosphorylated peptide [2]: did not seem to react as well as single ones
Dephosphorylation of displayed peptide (GST fusion) by WT PTP1B [6]: can dephosphorylate the displayed peptide

EFpYGAYSNADLDPAK (EF[pY]GAYSNADLDPAK) [x5]
Copy in the pool [7]: 2X
SPOT binding to PTP-Sap1DA, doubly phosphorylated ([8]; doubly phosphorylated sequence): weaker signal
ELISA [9]: strongest

EFpYGPVASDASDPAK (EF[pY]GPVASDASDPAK) [x58]
ELISA [9]: recognized in ELISA

EFpYGQFpYGPPQDPAK (EF[pY]GQF[pY]GPPQDPAK) [x2]
SPOT binding to PTP-Sap1DA ([8]; 15-mer peptides with phosphotyrosine on membrane): comparable SPOT results for both phosphorylated Tyrosines

EFpYGQIGDHLVDPAK (EF[pY]GQIGDHLVDPAK) [Sm-11]
SPOT binding to PTP-Sap1 R88N [3]: strongest signals

EFpYGTFAPKPLDPAK (EF[pY]GTFAPKPLDPAK) [Clone 1b-13]
SPOT binding to PTP1B trapping mutant [2]: signal is weaker

EFpYGTFAQSAEDPAK (EF[pY]GTFAQSAEDPAK) [x9]
Copy in the pool [7]: 3X

EFpYGTYRGQDSDPAK (EF[pY]GTYRGQDSDPAK) [Clone 1b-14]
Copy in the pool [5]: 2×

EFpYNLYEGVMSDPAK (EF[pY]NLYEGVMSDPAK) [Clone 1b-9]
SPOT binding to PTP1B trapping mutant [2]: confirmed in SPOT
ELISA [4]: not found in ELISA
